Measurements from paper PMC10992505, “Customized exogenous ferredoxin functions as an efficient electron carrier” (Bioresources and Bioprocessing, 2021).

B1: KshA, Rieske-type oxygenase of 3-ketosteroid-9-hydroxylase from Rhodococcus erythropolis (enzyme)
chain: MALGTGPLTTTDASTQSGAGEEIREIEAAAPPARFARGWHCLGLSNTYRDGQPHQIEAFGTSLVVFADSKGDIKILDAYCRHMGGNLAHGTVKGDSIACPFHDWRWGGNGKCTAIPYARRVPPLAKTRAWTTLEKNGQLFVWHDPQGNPPPAEVTIPDIEGFGSDEWSDWSWNTLTIEGSHCREIVDNVVDMAHFFYVHYSFPKYFKNIFEGHVASQYMESVGREDIISGTNYGDPNAVLRSDASYFGPSYMIDWIKSEANGQIIETVLINCHYPISNNAFVLQYGAMVKKLPGMDDESTAAMAAQFTEGVEMGFLQDVEIWKNKAPIDNPLLSEEDGPVYQLRRWYNQFYTDVENVTEDMTKRFEFEIDTTRAVESWKREVAENVAARDAQALETTS
B2: (Tepidiphilus thermophilus) (protein)
chain: VRTMEVAAVERPSEDIVVLHLTRPDRRPLPRWSPGAHIDIECGEPDRSRQYSLCSDPENRDAWRVAVQRDPASRGGSRWIHEEVRPGMLLRVRGPRNSFRLDEHAPRYLFLAGGIGITPIMTMAARAKELGTDYELHYSVRSRTSLIFVDELRQIHGDRLHVYVSEEGVRNDLAALIRRASAGTQIYACGPQRMLDTLERLIENRPEVTLRVEHFFGEPSHLDPAKERPFQVVLRNSGLTVEVPADKTLLEVLRAYNIEVQSDCEEGLCGTCEVSVVEGEVDHRDSVLTRAERRENRRMMCCCSRAKTERLVLDL
B3: Drosophila melanogaster Fdx2 (DmFdx2) (natural protein, UniProt Q8SZA8 30-152, looked up)
chain: STGLALKTKDVVNITFVRANGDKIKTSGKVGDSLLDVVVNNNVDLDGFGACEGTLTCSTCHLIFKTSDFEKLPDKPGDEELDMLDLAYELTDTSRLGCQITLSKDMEGLEVHVPSTINDARAA
notes: Drosophila melanogaster ferredoxin 2 (Fdx2), plant-type [2Fe-2S] ferredoxin; Carries a [2Fe-2S] cluster; Cloning into pET28a at NdeI would place the His6 tag at the N-terminus (surmised); also called free Fdx; plant-type Fdx; source: E. coli BL21(DE3), purified (Ni-NTA, Resource Q anion exchange)

How the values were obtained:
[1] = biological target: T1, PRF (CYP116B46 reductase domain, V465-L779) (Tepidiphilus thermophilus, UniProt A0A0K6ITW2, C736H/C766H, form not given); assay: NADH oxidation, absorbance […] nm; format: biochemical
T1 construct: gene Ga0061068_103196
T1 sequence (A0A0K6ITW2 entry or part of it C736H/C766H, form open): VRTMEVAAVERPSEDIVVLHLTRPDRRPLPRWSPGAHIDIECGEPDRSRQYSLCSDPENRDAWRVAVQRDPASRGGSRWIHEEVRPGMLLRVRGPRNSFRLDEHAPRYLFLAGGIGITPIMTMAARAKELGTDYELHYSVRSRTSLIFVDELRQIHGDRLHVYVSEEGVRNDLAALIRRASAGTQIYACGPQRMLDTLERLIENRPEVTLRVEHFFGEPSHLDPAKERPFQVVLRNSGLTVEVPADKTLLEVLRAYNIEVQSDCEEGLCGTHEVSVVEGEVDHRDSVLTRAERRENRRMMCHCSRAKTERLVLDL

[2] = tested on: T2, TDO (TDO_R; toluene 2,3-dioxygenase reductase with TDO-Fdx); conditions: electron acceptor not stated; MTDO, plant-type cluster; fusion numbering
T2 construct: gene todA

[3] = biological target: B3; assay: ITC; 0.2 mM DmFdx2 in the syringe, 2 uL injections into 0.02 mM KshA or PRF in the cell; 20 mM HEPES pH 7.4, 25 °C; one-site binding model; conditions: both partners purified
purified protein = substrate: NC(=O)C1=CN([C@@H]2O[C@H](COP(=O)(O)OP(=O)(O)OC[C@H]3O[C@@H](n4cnc5c(N)ncnc54)[C@H](O)[C@@H]3O)[C@@H](O)[C@H]2O)C=CC1; assay: purified protein; format: biochemical, Tepidiphilus thermophilus
[4] = biological target: PRF, reductase domain and Fdx (V465-L779) of Tepidiphilus thermophilus self-sufficient P450 CYP116B46 (Tepidiphilus thermophilus); assay: ITC; 0.2 mM DmFdx2 in the syringe, 2 uL injections into 0.02 mM KshA or PRF in the cell; 20 mM HEPES pH 7.4, 25 °C; one-site binding model
[5] = biological target: B1; assay: as above; conditions: both partners purified

NC(=O)C1=CN([C@@H]2O[C@H](COP(=O)(O)OP(=O)(O)OC[C@H]3O[C@@H](n4cnc5c(N)ncnc54)[C@H](O)[C@@H]3O)[C@@H](O)[C@H]2O)C=CC1 [NADH]
Km [1]: 63.1 ± 2.37 µM
Km [2]: 63.5 ± 2.95 µM

B1
Ka [3]: 2.1e+07 M⁻¹

B2
Km (purified protein): 39.11 ± 1.49 µM
kcat (purified protein): 66.43 ± 0.34 s⁻¹
kcat/Km (purified protein): 1.7e+06 M⁻¹ s⁻¹

B3
Ka [4]: 1.5e+07 M⁻¹
dH [4]: -1.91 kcal/mol
stoichiometry N [4]: 0.75
dH [5]: -1.43 ± 0.0311 kcal/mol
stoichiometry N [5]: 0.4 ± 0.02
